Measured values published in FireProtDB (doi:10.1006/jmbi.1995.0599).

Settings: Homo sapiens; pH 2.7; Thermal; DSC; glycine 0.05 M; reversible: yes; whole UniProt chain shown

B1: Lysozyme C wild type, P61626 (protein)
chain: MKALIVLGLVLLSVTVQGKVFERCELARTLKRLGMDGYRGISLANWMCLAKWESGYNTRATNYNAGDRSTDYGIFQINSRYWCNDGKTPGAVNACHLSCSALLQDNIADAVACAKRVVRDPQGIRAWVAWRNRCQNRDVRQYVQGCGV
Tm: 64.9 °C | heat capacity change of unfolding: 1.58 kcal/mol/K | unfolding enthalpy (calorimetric): 114 kcal/mol | unfolding enthalpy (van 't Hoff): 120 kcal/mol
